Among the data in article PMC12873404 are Kd values, retold here.

This assay addresses BTN2A2-His tag protein (without Fc tag) (human) (UniProt Q8WVV5). Nature of the assay: MST.

What is called Kd is the concentration at which binding is half-saturated. Read a low Kd as tighter binding. For the substance “recombinant CD45RO-Fc protein (from UniProt P08575-4 26-1145) (Fc fusion)”, the dissociation constant Kd turned out to be 63.5 nM.
